Results: JP2000515494A (dated 2000)

Target: T1, 4A6/IL-5複合体 (hIL-5 captured on immobilised mAb 4A6) (human, UniProt P05113 20-134)
T1 construct: also called 4A6/IL-5 complex
Experiment: BIAcore: mAb 4A6 immobilised, hIL-5 captured, IL-5Rα injected at 15, 30, 60, 120 nM

T1 sequence (P05113 20-134): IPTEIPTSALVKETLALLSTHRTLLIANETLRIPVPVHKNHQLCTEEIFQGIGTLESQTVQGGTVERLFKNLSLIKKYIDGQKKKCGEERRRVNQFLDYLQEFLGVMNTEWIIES

koff: 0.0023 s⁻¹
kon: 630000 M⁻¹ s⁻¹
B1: 可溶性IL-5レセプターα鎖 (soluble IL-5 receptor alpha chain) (receptor, UniProt Q01344 21-335, looked up)
chain: DLLPDEKISLLPPVNFTIKVTGLAQVLLQWKPNPDQEQRNVNLEYQVKINAPKEDDYETRITESKCVTILHKGFSASVRTILQNDHSLLASSWASAELHAPPGSPGTSIVNLTCTTNTTEDNYSRLRSYQVSLHCTWLVGTDAPEDTQYFLYYRYGSWTEECQEYSKDTLGRNIACWFPRTFILSKGRDWLAVLVNGSSKHSAIRPFDQLFALHAIDQINPPLNVTAEIEGTRLSIQWEKPVSAFPIHCFDYEVKIHNTRNGYLQIEKLMTNAFISIIDDLSKYDVQVRAAVSSMCREAGLWSEWSQPIYVGNDE
notes: also called IL-5Pα [sic]
